According to patent US20190119357A1, “MESSENGER RIBONUCLEIC ACIDS FOR THE PRODUCTION OF INTRACELLULAR BINDING POLYPEPTIDES AND METHODS OF USE THEREOF” (ModernaTX, Inc., priority 2015, published 2019):
Entries after “also recorded” stand apart in the source; their conditions may differ.

Key:
[1] = test system: human melanoma cells (A375); assay: Cell death after mRNA transfection; assay type: cell-based
[2] = test system: human hepatocellular carcinoma (Hep G2) cells; assay: Cell death and morphology after mRNA transfection; assay type: cell-based
Excerpt: A representative graph of the apoptotic ability of the SQT-BH3 constructs is shown in FIG. 2, showing the cell killing capacity of the SQT-BH3 constructs in Hep G2 cells.

primary hepatocytes [3] = assay: Apoptosis induction by MC3 LNP-formulated mRNAs in primary hepatocytes cultured in vitro; assay type: cell-based
[4] = Survival of mice treated with MC3 LNP formulations of mRNA with or without miR-122 binding site; assay type: in vivo
Excerpt: Negative controls included mRNA encoding SQT alone or SQT with a miR-122 binding site. Constitutively active caspase 6 was used as a positive control. An LNP containing a non-translatable factor IX cap 0 mRNA was used to control for mRNA and lipid effects that might be independent of the proteins encoded by the modified mRNAs. […] This dose was 10 times greater than a dose of mRNA encoding SQT-PUMA-BH3 that killed 40% of mice.

[5] = test system: Orthotopic Hep3B xenografts; assay: Efficacy in SCID mice bearing orthotopic Hep3B xenografts; assay type: in vivo; conditions: orthotopic Hep3B study, over the course of the study
Protocol: LNPs comprising the cationic lipid MC3 were tested using the optimal percentage of PEG-lipid and optimal PEG length (1.5% DSPE, C18, as described in Example 10), for in vivo targeted delivery of SQT-PUMA-BH3 in a model of Orthotopic Hep3B xenografts.
SCID mice were anesthetized, a transverse incision was made below the xiphoid and Hep3B cells (2×10^6) were injected into the upper left lobe of the liver, followed by surgical closure of the abdomen and skin. Tumor growth was measured by whole body bioluminescent imaging (BLI) in anaesthetized animals following SC injection of 150 mg/kg D-Luciferin, in an imaging chamber (Spectrum CT). Bioluminescence was measured as total flux (photons/second) of the entire animals. On Day 8 following tumor implantation when tumor BLI reached an average of 3.17×10^8 photons/sec (range 12.37×10^7−1.38×10^9 photons/sec), animals were randomized into study groups and treated weekly over a three week period (Days 9, 16 and 23) with PBS IV (Group 1), SQT 3 mg/kg IV (Group 2), mmRNA encoding SQT-PUMA-BH3 (comprising a miR122 binding site) weekly at 0.75 mg/kg (Group 3), 1.5 mg/kg (Group 4) or 3 mg/kg IV (Group 5; 12 animals per group). One week following the final dose, animals were euthanized and tumors excised and weighed.

systemic TF1a xenografts = assay: Systemic TF1a xenografts in SCID mice (AML model); assay type: in vivo
Protocol: LNPs comprising the cationic lipid MC3 were tested using the optimal percentage of PEG-lipid and optimal PEG length (1.5% DSPE, C18, as described in Example 8), for in vivo targeted delivery of SQT-PUMA-BH3 in two different in vivo models of acute myeloid leukemia (AML). One model used systemic TF1a xenografts in SCID mice. The other model used systemic HEL xenografts in SCID mice. Each of these models uses a human erythroleukemia cell line. The HEL erythroleukia cell line is described in, for example, Martin, P. and Papayannopoulou, T. (1982) Science 216:1233-1235. The TF1 erythroleukmia cell line (from which TF1a is derived) is described in, for example, Kitamura, T. et al. (1989) J. Cell. Physiol. 140:323-334. Unless otherwise noted, mRNAs were fully modified with N1-methlypseudouridine to avoid stimulating an innate immune response to said mRNAs when administered in vivo.
In a first set of experiments, TF1a cells stably expressing luciferase (TF1α-luc cells) were implanted systemically in SCID mice. Tumor growth was measured by whole body bioluminescent imaging (BLI) in anaesthetized animals following SC injection of 150 mg/kg D-Luciferin, in an imaging chamber (Spectrum CT). Animals showing an increasing tumor burden at day 12 post-cell implantation were recruited for treatment. Animals were randomized into four study groups, as follows: PBS IV (Group 1), cytarabine at 2 mg/kg three times per week (Group 2), LNPs containing mRNA encoding Green Fluorescent Protein (GFP) at 3 mg/kg one time per week (Group 3) and LNPs containing mRNA encoding SQT-PUMA-BH3 (comprising a miR122 binding site) at 3 mg/kg one time per week. Mice were dosed intravenously for four weeks.

systemic TF1a tumors = assay: Repeat study in the TF1a-SCID model with survival endpoint; assay type: in vivo
Protocol: In this repeat study, tumor growth inhibition (TGI) was the primary efficacy over the first 4 weeks of the study and survival was the primary efficacy endpoint over the second 4 weeks of the study. […] Animals were dosed as follows: PBS (0.1 ml/20 g one time per week) IV (Group 1), cytarabine IV at 2 mg/kg three times per week (Group 2), LNPs containing mRNA encoding Green Fluorescent Protein (GFP) at 3 mg/kg one time per week (Group 3) and LNPs containing mRNA encoding SQT-PUMA-BH3 (comprising a miR122 binding site) at 3 mg/kg one time per week (Group 4).
Mice were dosed intravenously for four weeks, with animals in Group 4 being dosed for eight weeks (i.e., weekly dosing up to eight weeks).
In this repeat study, tumor growth inhibition (TGI) was again used as a primary endpoint to quantify efficacy with BLI being used as a surrogate for tumor burden. Bioluminescence Imaging (BLI) was measured weekly out to at least Day 61 post disease induction. The mean BLI results at Day 33 and Day 61 are shown in FIGS. 23A and 23B, respectively.
The survival of the mice over eight weeks was monitored and the percent survival of the mice in the study was assessed.

Hep3B cells = assay: SQT-BH3 in combination with siMCL1 or sorafenib, YOYO-3; assay type: cell-based; conditions: 10 uM sorafenib tosylate, 24 hours after treatment
primary hepatocytes [6] = conditions: 10uM sorafenib tosylate, 24 hours after treatment
Protocol: Controls were an empty SQT construct (“SQT-dummy”), a non-targeting siRNA and PBS. For treatment of Hep3B cells, 20,000 Hep3B cells/well per plated in 96-well plates. At Day 1, some wells were transfected with siMCL1 (Dharmacon, ON-TARGETplus Human MCL1 (4170) siRNA-SMARTpool, # L-004501-00-0005) or non-targeting siRNA (ON-TARGETplus Non-targeting Control Pool, # D-001810-10-05). […] 24 hours after treatment, YOYO®-3 iodide (Life Technologies) viability dye was added to each well and cell death was measured on an IncuCyte ZOOM® using YOYO-3 fluorescence as a readout (=“Apoptosis”). For treatment of primary hepatocytes, 18,000 mouse hepatocytes (Gibco) were seeded in each well of a 96-well plate. At Day 1, some wells were transfected with siMCL1 (Dharmacon, SMARTpool: ON-TARGETplus Mc11 siRNA, # L-062229-00-0005) or non-targeting siRNA (ON-TARGETplus Non-targeting Control Pool, # D-001810-10-05). […] 24 hours after treatment, Caspase 3/7 reagent (EssenBio) apoptosis dye was added to each well and cell death was measured on an IncuCyte ZOOM® using the caspase 3/7 reagent fluorescence as a readout (=“Apoptosis”).

[7] = TF1a-SCID mice, 3 mg/kg one time per week

B1: SQT-PUMA-BH3: mRNA (SEQ ID NO: 49, FLAG) encoding SQT scaffold with PUMA BH3 domain in N-terminus, fully modified with 1-methyl-pseudouridine (nucleic acid)
chain: ATGATCCCAAGAGAAGAACAGTGGGCACGCGAAATTGGAGCTCAACTCAGACGGATGGCCGACGACCTGAACGCCCAGTACGAGCGGCGGGGACTCTCAGAAGCGAAGCCTGCCACCCCCGAAATCCAGGAAATCGTCGACAAGGTCAAGCCGCAGCTTGAGGAAAAGACCAACGAGACTTACGGAAAACTGGAGGCCGTGCAGTATAAGACCCAAGTGTTGGCCTCCACCAACTACTACATTAAGGTCCGCGCCGGCGATAACAAGTACATGCACCTGAAGGTGTTCAATGGTCCTCCGGGACAGAACGCGGACAGGGTGCTGACTGGCTACCAAGTGGACAAGAACAAGGACGACGAGCTGACGGGCTTCGACTACAAGGATGATGATGACAAA
modifications: FLAG tag, 1-methyl-pseudouridine; Synthetic SQT-PUMA-BH3 mRNA sequence with FLAG epitope tag
cell death [1]: caused rapid cell death almost immediately following transfection | cell death [2]: caused rapid cell death almost immediately following transfection; also recorded: underwent cell death almost immediately following transfection | cell morphology [2]: rounded-up cell morphology that is characteristic of apoptotic cells | PARP-1 cleavage (primary hepatocytes [3]; LNPs): also induced PARP-1 cleavage in primary hepatocytes | apoptosis (YOYO-3 dye uptake and fluorescence) as a function of time (primary hepatocytes [3]; MC3-LNP-formulated): induce apoptosis | mice killed ([4]; mRNA without miR-122 binding site, dose 10 times lower than 1 mg/kg): 40% | toxicity / tolerable dose / survival ([4]; mice, MC3 LNP formulations, 0.1-3 mg/kg): very toxic over a range of doses | death of the treated animals, time ([4]; mice, MC3 LNP, mRNA without miR-122 binding sites, range of doses): ≤ 5 h | survival rate ([4]; mice, lowest dose of 0.1 mg/kg, mRNA without miR-122 binding sites): approximately 60% | percent body weight change / tolerability [5]: did not significantly impact body weight | body weight (systemic TF1a xenografts; [7]): did not cause significant body weight changes | tolerability / treatment-related mortality (systemic TF1a xenografts; [7]): well tolerated, resulting in no treatment-related mortality | systemic tumor growth (BLI) (systemic TF1a xenografts; TF1a-SCID, mRNA LNPs 3 mg/kg one time per week, cytarabine 2 mg/kg three times per week, IV, four weeks): led to greater tumor growth inhibition than treatment with cytarabine | percent body weight change / tolerability (systemic TF1a tumors): did not significantly impact body weight | tumor growth (BLI) (systemic TF1a tumors; 3 mg/kg one time per week, 3 mg/kg): showed marked tumor growth regression as compared to both PBS and LNP controls; also recorded: most effective treatment for inhibiting tumor growth, showing greater efficacy than the cytarabine SOC control | median survival (systemic TF1a tumors; post-implant, 3 mg/kg one time per week): median survival had not yet been reached | apoptosis (YOYO-3) in combination with either siMCL1 or sorafenib (Hep3B cells): led to a marked increase in apoptosis as compared to treatment with the SQT-BH3 construct in combination with non-targeting siRNA or PBS; also recorded: synergistic pro-apoptotic effect | apoptosis (caspase 3/7) in combination with siMCL1, sorafenib or controls (primary hepatocytes [6]): did not lead to increased apoptosis as compared to treatment with the control SQT-dummy construct
